Assay [1] has as its target DNA polymerase I (Escherichia coli) (UniProt P00582).
The target of assay [2] is MBP-UmuC fusion protein (maltose binding protein fused to UmuC, DNA polymerase V) (Escherichia coli).
Assay [3] has as its target DNA polymerase II (Escherichia coli) (UniProt P21189).
Assay [4] deals with DNA polymerase III holoenzyme.

The substance RecA (from UniProt P0A7G6) registered a Cro- mutation frequency after gap-filling replication by pol I with UmuD', RecA, SSB (Cro- mutation frequency per gene) in assay [1] of 0.00078. In assay [2], the Cro- mutation frequency after in vitro gap-filling replication, RecA omitted (Cro- mutation frequency per gene) was found to be 0.00025. Moreover, the Cro- mutation frequency after gap-filling replication by pol II with UmuD', RecA, SSB (Cro- mutation frequency per gene) in assay [3] was 0.00065. The Cro- mutation frequency after gap-filling replication by pol III holoenzyme with UmuD', RecA, SSB (Cro- mutation frequency per gene) in assay [4] was 0.00081.
Substance “SSB (single stranded DNA-binding protein) (from UniProt P0AGE0)” returned a Cro- mutation frequency after gap-filling replication by pol I with UmuD', RecA, SSB (Cro- mutation frequency per gene) in assay [1] of 0.00078. For the same substance, in assay [2], the Cro- mutation frequency after in vitro gap-filling replication, SSB omitted (Cro- mutation frequency per gene) was determined as 0.00051. The substance also came in with a Cro- mutation frequency after gap-filling replication by pol II with UmuD', RecA, SSB (Cro- mutation frequency per gene) in assay [3] of 0.00065. For the same substance, the Cro- mutation frequency after gap-filling replication by pol III holoenzyme with UmuD', RecA, SSB (Cro- mutation frequency per gene) in assay [4] worked out at 0.00081.
In assay [1], UmuD' (from UniProt P0AG11) had a Cro- mutation frequency after gap-filling replication by pol I with UmuD', RecA, SSB (Cro- mutation frequency per gene) of 0.00078. Besides, the Cro- mutation frequency after in vitro gap-filling replication, UmuD' omitted (Cro- mutation frequency per gene) in assay [2] turned out to be 0.00027. Moreover, the Cro- mutation frequency after gap-filling replication by pol II with UmuD', RecA, SSB (Cro- mutation frequency per gene) in assay [3] is 0.00065. Also, the Cro- mutation frequency after gap-filling replication by pol III holoenzyme with UmuD', RecA, SSB (Cro- mutation frequency per gene) in assay [4] was determined as 0.00081.

The record behind these values is patent US6333178.
